Data published in US11957716B2 (Immatics Biotechnologies GmbH, priority 2021, dated 2024).

What was measured:
[1] = biological target: HLA-A*03:01 (Homo sapiens, UniProt P04439); assay: MHC binding assay, UV-ligand exchange ELISA; conditions: peptide exchange yield, binding to HLA-A*03:01
From the text: Candidate peptides for T cell based therapies according to the present invention were further tested for their MHC binding capacity (affinity). The individual peptide-MHC complexes were produced by UV-ligand exchange, where a UV-sensitive peptide is cleaved upon UV-irradiation and exchanged with the peptide of interest as analyzed. Only peptide candidates that can effectively bind and stabilize the peptide-receptive MHC molecules prevent dissociation of the MHC complexes. To determine the yield of the exchange reaction, an ELISA was performed based on the detection of the light chain (β2m) of stabilized MHC complexes. The assay was performed as generally described in Rodenko et al. (Rodenko et al., 2006).
96 well MAXISorp plates (NUNC) were coated over night with 2 μg/ml streptavidin in PBS at room temperature, washed 4× and blocked for 1 h at 37° C. in 2% BSA containing blocking buffer. Refolded HLA-A*02:01/MLA-001 monomers served as standards, covering the range of 15-500 ng/ml. Peptide-MHC monomers of the UV-exchange reaction were diluted 100-fold in blocking buffer. Samples were incubated for 1 h at 37° C., washed four times, incubated with 2 μg/ml HRP conjugated anti-82m for 1 h at 37° C., washed again and detected with TMB solution that is stopped with […]. Absorption was measured at 450 nm. Candidate peptides that show a high exchange yield (preferably higher than 50%, most preferred higher than 75%) are generally preferred for a generation and production of antibodies or fragments thereof, and/or T cell receptors or fragments thereof, as they show sufficient avidity to the MHC molecules and prevent dissociation of the MHC complexes.

[2] = tested on: HLA-A*01:01, HLA-A*02:01, HLA-A*03:01, HLA-A*24:02, HLA-B*07:02, HLA-B*08:01 and HLA-B*44:02; assay: HLA alleles the peptides bind to (Table 7); assay type: binding, human; conditions: allotype from the group HLA-A*01:01, HLA-A*02:01, HLA-A*03:01, HLA-A*24:02, HLA-B*07:02, HLA-B*08:01, HLA-B*44:02
From the text: However, due to similarities in binding pattern such as the relevant anchoring positions some peptides bind to more than one allele, such an overlap is most likely, but not limited to, HLA-A*01 binding peptides also binding to HLA-B*15, HLA-A*03 binding peptides also binding to HLA-A*11, HLA-B*07 binding peptides also binding to HLA-B*35 and HLA-B*51.

Row | Substance | Peptide exchange [1] | Binders (HLA alleles the peptides according to the invention bind to) [2]
1 | 94 (AVFLGNPSNQK; listed as Homo sapiens) [compound 94] | ++++ (≥75% = ++++) | HLA-A*03:01
2 | 17 (MVNWSLTNK; listed as Homo sapiens) [compound 17] | ++++ (≥75% = ++++) | HLA-A*03:01
3 | 179 (MIFSGVFLR; listed as Homo sapiens) [compound 179] | ++++ (≥75% = ++++) | HLA-A*03:01
4 | 151 (AVFVNWEQTKK; listed as Homo sapiens) [compound 151] | ++++ (≥75% = ++++) | HLA-A*03:01
5 | 154 (TVTSAIVNR; listed as Homo sapiens) [compound 154] | +++ (≥50% = +++) | HLA-A*03:01
6 | 127 (TVATQVATSK; listed as Homo sapiens) [compound 127] | +++ (≥50% = +++) | HLA-A*03:01
7 | 19 (RILEVVRQPK; listed as Homo sapiens) [compound 19] | ++++ (≥75% = ++++) | HLA-A*03:01
8 | 204 (VVRASSGLK; listed as Homo sapiens) [compound 204] | +++ (≥50% = +++) | HLA-A*03:01
9 | 213 (TLLSFKTVLFK; listed as Homo sapiens) [compound 213] | ++++ (≥75% = ++++) | HLA-A*03:01
10 | 144 (IIVPSFYK; listed as Homo sapiens) [compound 144] | +++ (≥50% = +++) | HLA-A*03:01
11 | 138 (RTLPLEGSPK; listed as Homo sapiens) [compound 138] | +++ (≥50% = +++) | HLA-A*03:01
12 | 107 (SVISVLTTPK; listed as Homo sapiens) [compound 107] | ++++ (≥75% = ++++) | HLA-A*03:01
13 | 81 (KLIAGLIFLK; listed as Homo sapiens) [compound 81] | +++ (≥50% = +++) | HLA-A*03:01
14 | 20 (ILAPPAILK; listed as Homo sapiens) [compound 20] | ++++ (≥75% = ++++) | HLA-A*03:01
15 | 178 (SLFGGLFTR; listed as Homo sapiens) [compound 178] | ++++ (≥75% = ++++) | HLA-A*03:01
16 | 50 (KTIDLVIVR; listed as Homo sapiens) [compound 50] | ++++ (≥75% = ++++) | HLA-A*03:01
17 | 190 (STQSSLLYLK; listed as Homo sapiens) [compound 190] | +++ (≥50% = +++) | HLA-A*03:01
18 | 193 (ILQLITVNR; listed as Homo sapiens) [compound 193] | +++ (≥50% = +++) | HLA-A*03:01
19 | 112 (ETYGTFVLR; listed as Homo sapiens) [compound 112] | +++ (≥50% = +++) | HLA-A*03:01
20 | 88 (KVGAVVHLK; listed as Homo sapiens) [compound 88] | +++ (≥50% = +++) | HLA-A*03:01

Row | Substance | Peptide exchange [1] | Binders (HLA alleles the peptides according to the invention bind to) [2]
21 | 28 (ATLQAVTLYKK; listed as Homo sapiens) [compound 28] | ++++ (≥75% = ++++) | HLA-A*03:01
22 | 104 (GSLQTLPPK; listed as Homo sapiens) [compound 104] | +++ (≥50% = +++) | HLA-A*03:01
23 | 152 (KIMEILNLK; listed as Homo sapiens) [compound 152] | ++++ (≥75% = ++++) | HLA-A*03:01
24 | 198 (MTYQQPFSNR; listed as Homo sapiens) [compound 198] | ++++ (≥75% = ++++) | HLA-A*03:01
25 | 205 (SLIPIVPFKS; listed as Homo sapiens) [compound 205] | ++ (≥20% = ++) | HLA-A*03:01
26 | 203 (AILVPQPPK; listed as Homo sapiens) [compound 203] | +++ (≥50% = +++) | HLA-A*03:01
27 | 174 (LSGPVTFLR; listed as Homo sapiens) [compound 174] | +++ (≥50% = +++) | HLA-A*03:01
28 | 146 (KVLVDFLLK; listed as Homo sapiens) [compound 146] | +++ (≥50% = +++) | HLA-A*03:01
29 | 53 (TTLENLPQK; listed as Homo sapiens) [compound 53] | +++ (≥50% = +++) | HLA-A*03:01
30 | 91 (RIVTYIVAK; listed as Homo sapiens) [compound 91] | +++ (≥50% = +++) | HLA-A*03:01
31 | 202 (KLLLLSSVK; listed as Homo sapiens) [compound 202] | +++ (≥50% = +++) | HLA-A*03:01
32 | 1 (AILAPPAILK; listed as Homo sapiens) [compound 1] | ++++ (≥75% = ++++) | HLA-A*03:01
33 | 8 (VIYNQTLMK; listed as Homo sapiens) [compound 8] | ++++ (≥75% = ++++) | HLA-A*03:01
34 | 125 (ALAQGANLK; listed as Homo sapiens) [compound 125] | +++ (≥50% = +++) | HLA-A*03:01
35 | 2 (GTVFVLLSK; listed as Homo sapiens) [compound 2] | ++ (≥20% = ++) | HLA-A*03:01
36 | 22 (RVIEVVMNSK; listed as Homo sapiens) [compound 22] | ++++ (≥75% = ++++) | HLA-A*03:01
37 | 187 (RLCPAAPTGK; listed as Homo sapiens) [compound 187] | ++++ (≥75% = ++++) | HLA-A*03:01
38 | 166 (VIFLHQPPK; listed as Homo sapiens) [compound 166] | ++++ (≥75% = ++++) | HLA-A*03:01
39 | 51 (SVFSLVHLFDK; listed as Homo sapiens) [compound 51] | ++++ (≥75% = ++++) | HLA-A*03:01
40 | 34 (LLFKGLMWK; listed as Homo sapiens) [compound 34] | ++++ (≥75% = ++++) | HLA-A*03:01
